Source: patent US20180355014A1 (JUNO THERAPEUTICS, published 2018)

B1: FWVKRGHKK (SEQ ID NO: 67) (peptide)
peptide: FWVKRGHKK
notes: synthetic 9-mer; the entry already carries the mutation
B2: FWVQRGRKK (SEQ ID NO: 55) (peptide)
peptide: FWVQRGRKK
notes: as for B1
B3: FWVQRGNKK (SEQ ID NO: 87) (peptide)
peptide: FWVQRGNKK
notes: synthetic 9-mer; the entry already carries the mutations
B4: FWVQRGAKK (SEQ ID NO: 83) (peptide)
peptide: FWVQRGAKK
notes: as for B3
B5: FWVLRGRKK (SEQ ID NO: 35) (peptide)
peptide: FWVLRGRKK
notes: as for B1
B6: FWVKRGNKK (SEQ ID NO: 75) (peptide)
peptide: FWVKRGNKK
notes: as for B1
B7: FWVKRGAKK (SEQ ID NO: 71) (peptide)
peptide: FWVKRGAKK
notes: as for B1
B8: FWVHRGRKK (SEQ ID NO: 42) (peptide)
peptide: FWVHRGRKK
notes: as for B1
B9: FWVKRGSKK (SEQ ID NO: 59) (peptide)
peptide: FWVKRGSKK
notes: as for B1
B10: FWVKRGLKK (SEQ ID NO: 63) (peptide)
peptide: FWVKRGLKK
notes: as for B1
B11: FWVSRGRKK (SEQ ID NO: 28) (peptide)
peptide: FWVSRGRKK
notes: as for B1
B12: FWVQRGSKK (SEQ ID NO: 79) (peptide)
peptide: FWVQRGSKK
notes: as for B3
B13: IIFWVKRGH (SEQ ID NO: 65) (peptide)
peptide: IIFWVKRGH
notes: as for B1
B14: IIFWVQRGN (SEQ ID NO: 85) (peptide)
peptide: IIFWVQRGN
notes: as for B3
B15: IIFWVQRGS (SEQ ID NO: 77) (peptide)
peptide: IIFWVQRGS
notes: as for B3
B16: IFWVLRGRK (SEQ ID NO: 34) (peptide)
peptide: IFWVLRGRK
notes: as for B1
B17: IFWVQRGSK (SEQ ID NO: 78) (peptide)
peptide: IFWVQRGSK
notes: as for B3
B18: FIIFWVSRG (SEQ ID NO: 25) (peptide)
peptide: FIIFWVSRG
notes: as for B1
B19: FIIFWVLRG (SEQ ID NO: 32) (peptide)
peptide: FIIFWVLRG
notes: as for B1
B20: FIIFWVQRG (SEQ ID NO: 52) (peptide)
peptide: FIIFWVQRG
notes: as for B1
B21: WVHRGRKKL (SEQ ID NO: 43) (peptide)
peptide: WVHRGRKKL
notes: as for B1
B22: WVSRGRKKL (SEQ ID NO: 29) (peptide)
peptide: WVSRGRKKL
notes: as for B1
B23: WVLRGRKKL (SEQ ID NO: 36) (peptide)
peptide: WVLRGRKKL
notes: as for B1
B24: WVKRGRKKS (SEQ ID NO: 89) (peptide)
peptide: WVKRGRKKS
notes: as for B1
B25: WVQRGAKKL (SEQ ID NO: 84) (peptide)
peptide: WVQRGAKKL
notes: as for B3
B26: WVQRGSKKL (SEQ ID NO: 80) (peptide)
peptide: WVQRGSKKL
notes: as for B3
B27: WVKRGLKKL (SEQ ID NO: 64) (peptide)
peptide: WVKRGLKKL
notes: as for B1
B28: AFIIFWVQR (SEQ ID NO: 51) (peptide)
peptide: AFIIFWVQR
notes: as for B1
B29: AFIIFWVLR (SEQ ID NO: 31) (peptide)
peptide: AFIIFWVLR
notes: as for B1
B30: VAFIIFWVA (SEQ ID NO: 44) (peptide)
peptide: VAFIIFWVA
notes: as for B1
B31: VAFIIFWVQ (SEQ ID NO: 50) (peptide)
peptide: VAFIIFWVQ
notes: as for B1
B32: VAFIIFWVH (SEQ ID NO: 37) (peptide)
peptide: VAFIIFWVH
notes: as for B1
B33: FWVARGRKK (SEQ ID NO: 48) (peptide)
peptide: FWVARGRKK
notes: as for B1

Target: T1, HLA-A*11:01 (human)
T1 construct: Recombinant MHC class I molecule without the test peptide; the peptide is the other partner
Assay: REVEAL MHC-peptide binding assay, recombinant HLA-A*11:01
Protocol: (§1) Specifically, assessment was of a series of overlapping 9-mer peptides derived from the sequence […] (set forth in SEQ ID NO: 7), which contains a portion of the CD28 transmembrane domain and 4-1BB costimulatory domain spanning the junction between the domains (bond joining the two amino acids noted in underline). In addition, a series of overlapping 9-mer peptides of each of a number of different variants of this portion also were assessed, each variant containing a mutation or mutations in this region as described in Example 2.
(§2) The various 9-mer overlapping peptides were synthesized and their purity tested by MALDI-TOF Mass Spectrometry.

Row | In Vitro Score | Binder
1 | 6.5 % of positive control peptide | FWVKRGRKK (synthetic 9-mer) [FWVKRGRKK (SEQ ID NO: 21)]
2 | 27.6 % of positive control peptide | B1
3 | 5.7 % of positive control peptide | B2
4 | 5.9 % of positive control peptide | B3
5 | 18.3 % of positive control peptide | B4
6 | 5 % of positive control peptide | B5
7 | 7.3 % of positive control peptide | B6
8 | 13.2 % of positive control peptide | B7
9 | 5.6 % of positive control peptide | B8
10 | 5.6 % of positive control peptide | B9
11 | 25.3 % of positive control peptide | B10
12 | 6.3 % of positive control peptide | B11
13 | 6.8 % of positive control peptide | B12
14 | 19.5 % of positive control peptide | B13
15 | 29 % of positive control peptide | B14
16 | 16.9 % of positive control peptide | B15
17 | 29.3 % of positive control peptide | IFWVKRGRK (synthetic 9-mer) [IFWVKRGRK (SEQ ID NO: 20)]
18 | 29.3 % of positive control peptide | B16
19 | 103 % of positive control peptide | B17

Row | In Vitro Score | Binder
20 | 0.4 % of positive control peptide | FIIFWVKRG (synthetic 9-mer) [FIIFWVKRG (SEQ ID NO: 18)]
21 | 5.1 % of positive control peptide | B18
22 | 2.4 % of positive control peptide | B19
23 | 1.5 % of positive control peptide | B20
24 | 4.8 % of positive control peptide | WVKRGRKKL (synthetic 9-mer) [WVKRGRKKL (SEQ ID NO: 22)]
25 | 5.6 % of positive control peptide | B21
26 | 4.4 % of positive control peptide | B22
27 | 3.2 % of positive control peptide | B23
28 | 6.7 % of positive control peptide | B24
29 | 3.8 % of positive control peptide | B25
30 | 5.9 % of positive control peptide | B26
31 | 22.1 % of positive control peptide | B27
32 | 25.9 % of positive control peptide | AFIIFWVKR (synthetic 9-mer) [AFIIFWVKR (SEQ ID NO: 17)]
33 | 15 % of positive control peptide | B28
34 | 17.2 % of positive control peptide | B29
35 | 2.8 % of positive control peptide | B30
36 | 3.9 % of positive control peptide | B31
37 | 12.3 % of positive control peptide | B32

Target: T2, HLA-B*08:01 (human)
T2 construct: Recombinant MHC class I molecule without the test peptide; the peptide is the other partner
Assay: REVEAL MHC-peptide binding assay, recombinant HLA-B*08:01
Protocol: as §1, §2

Row | In Vitro Score | Binder
38 | 0 % of positive control peptide | FWVKRGRKK (synthetic 9-mer) [FWVKRGRKK (SEQ ID NO: 21)]
39 | 0.4 % of positive control peptide | B1
40 | 1.9 % of positive control peptide | B2
41 | 0 % of positive control peptide | B3
42 | 0 % of positive control peptide | B4
43 | 0 % of positive control peptide | B5
44 | 0 % of positive control peptide | B33
45 | 0.1 % of positive control peptide | B6
46 | 0.3 % of positive control peptide | B7
47 | 0 % of positive control peptide | B8
48 | 0.1 % of positive control peptide | B9
49 | 0 % of positive control peptide | B11
50 | 0 % of positive control peptide | B12
51 | 0.1 % of positive control peptide | B13
52 | 0 % of positive control peptide | B14
53 | 0.1 % of positive control peptide | B15
54 | 0.4 % of positive control peptide | IFWVKRGRK (synthetic 9-mer) [IFWVKRGRK (SEQ ID NO: 20)]

Row | In Vitro Score | Binder
55 | 0 % of positive control peptide | B16
56 | 0 % of positive control peptide | B17
57 | 0.1 % of positive control peptide | FIIFWVKRG (synthetic 9-mer) [FIIFWVKRG (SEQ ID NO: 18)]
58 | 0.4 % of positive control peptide | B18
59 | 0.2 % of positive control peptide | B19
60 | 0.6 % of positive control peptide | B20
61 | 28.5 % of positive control peptide | WVKRGRKKL (synthetic 9-mer) [WVKRGRKKL (SEQ ID NO: 22)]
62 | 19.2 % of positive control peptide | B21
63 | 6.2 % of positive control peptide | B22
64 | 4 % of positive control peptide | B23
65 | 4.3 % of positive control peptide | B24
66 | 11.4 % of positive control peptide | B25
67 | 65.7 % of positive control peptide | B27
68 | 1.9 % of positive control peptide | AFIIFWVKR (synthetic 9-mer) [AFIIFWVKR (SEQ ID NO: 17)]
69 | 0 % of positive control peptide | B28
70 | 0.2 % of positive control peptide | B29
71 | 0 % of positive control peptide | B32
